Assay [1] deals with cynomolgus HER3. The experiment in a line: Kinetic binding analysis by surface plasmon resonance (ProteOn XPR36, IgG capture). Particulars: Cynomolgus antigen. As for the experimental part: (§1) Kinetic binding analysis of the purified humanized variants was performed on a ProteOn™ XPR36 biosensor (BioRad, USA) employing an IgG capture assay as described by Canziani et al. (Anal. Biochem. (2004) 325:301-307) that allows for measurement of antibody affinities of whole IgG molecules against soluble antigen under monovalent conditions. Briefly, approximately 5000 resonance units (RU) of a monoclonal mouse anti-human IgG Fc antibody (GE Healthcare, Denmark) was conjugated to a GLC chip surface (BioRad, USA) according to the manufacturer's instructions, followed by capture of individual antibodies of the invention or a negative control on the anti-Fc sensor surface. […] Next, 250 μl monovalent antigen (Sino Biologicals) was injected at a flow rate of 50 μl/min in serial threefold dilutions from 100 nM stock to generate response curves. The chip surface was regenerated between cycles by stripping the captured antibody/antigen complexes off the surface with a 10-second injection of 3 M MgCl2 (GE Healthcare, Denmark) repeated three times. Finally, binding responses were fitted to a Langmuir 1:1 binding model for calculation of the on-rate (kon or ka), off-rate (koff or kd) and affinity (KD) constants using double referencing.
In general terms: SPR reads the build-up and loss of mass on a sensor chip optically.

Assay [2] deals with T1, human HER3 (Homo sapiens, UniProt P21860).
T1 construct: against soluble antigen under monovalent conditions; purchased Sino Biologicals
The description is as above. Conditions: Human antigen. As for the experimental part: as §1

Assay [3] concerns EGFR, HER2 and HER3 in OVCAR-8 cells. Put plainly: Western blot of EGFR, HER2 and HER3 in whole cell lysates (Example 6). Conditions: OVCAR-8, 20 μg/ml, 48 hour. It is filed as cell-based, human. (A western blot detects proteins with antibodies after separation by electrophoresis.)
The target of assay [4] is cynomolgus HER2. Put plainly: Kinetic binding analysis by surface plasmon resonance (ProteOn XPR36, IgG capture). Conditions: Cynomolgus antigen. As for the experimental part: as §1
In assay [5] the target is T2, human HER2 (Homo sapiens, UniProt P04626).
T2 construct: against soluble antigen under monovalent conditions; purchased Sino Biologicals
The assay is described as above. Particulars: Human antigen. The procedure:
as §1

B1: antibody 5082: chimeric parent anti-HER3 antibody disclosed in WO 2012/059857; VH SEQ ID NO: 35, light chain SEQ ID NO: 37 (antibody)
VH: RAEVQLKESGPGLVKPSQSLSLTCSVTGYSITSAYYWNWIRQFPGNKVEWMGYIGYDGRNTYNPSLKNRISITRDTSKNQFFLKLNSLTTEDTATYYCSREGDYGYSDYWGQGTTLTVS
light: LADIVMTQATSSLSASLGDRVTVSCRASQDINNYLNWYQQKPDGTVKLLIYYTSRLQSGVPSRFSGSGSGIDYSLTISNLEQEDFVTYFCQQSETLPWTFGGGTKLELKRTVAAPSVFIFPPSDEQLKSGTASVVCLLNNFYPREAKVQWKVDNALQSGNSQESVTEQDSKDSTYSLSSTLTLSKADYEKHKVYACEVTHQGLSSPVTKSFNRGEC
As to B1, in assay [1], the ka came to 1.7e+06 M⁻¹ s⁻¹ and the kd is 0.00016 s⁻¹. Further, in assay [2], the ka is 910000 M⁻¹ s⁻¹ and the kd stood at 7.3e-05 s⁻¹. The “EGFR, HER2 and HER3 levels in whole cell lysates” value in assay [3] is on record as “HER2 up-regulation”.

B2: antibody 4517: chimeric parent anti-HER2 antibody disclosed in WO 2012/059857; VH SEQ ID NO: 27, light chain SEQ ID NO: 29 (antibody)
VH: EVQLVESGGDLVKPGGSLKLSCAASGFTFSSYGMSWVRLTPDKRLEWVATISGGGSYTYYPDSVKGRFTISRDIAKSTLYLQMSSLKSEDTAVYYCARKGNYGNYGKLAYWGQGTSVTVS
light: DIQMTQSPASLSVSVGETVTITCRASENIYSNLAWYQQEQGKSPQLLVYAATNLADGVPSRFSGSGSGTQYSLKINSLQSEDFGSYYCQHFWGTPWTFGGGTKLEIKRTVAAPSVFIFPPSDEQLKSGTASVVCLLNNFYPREAKVQWKVDNALQSGNSQESVTEQDSKDSTYSLSSTLTLSKADYEKHKVYACEVTHQGLSSPVTKSFNRGEC
For orientation: Kd means a measure of binding affinity in units of concentration. Low readings indicate a tighter complex, high ones a looser complex. Consider B2, for which, in assay [4], binding was put at a Kd of 3.7 nM, the ka came out at 230000 M⁻¹ s⁻¹ and the kd came out at 0.00086 s⁻¹. In addition, in assay [5], the ka turned out to be 260000 M⁻¹ s⁻¹ and the kd stood at 0.00029 s⁻¹.

The record behind these values is patent US9527913B2, “Humanized pan-HER antibody compositions” (Symphogen A/S, priority 2012, dated 2016).
